# Where two headings read alike, the source gives them in different places.
# Experiments:
# [1] = biological target: paclitaxel-stabilized microtubules (UniProt P02550); test: co-sedimentation
# [2] = biological target: paclitaxel-stabilized microtubules (UniProt P02550); test: co-sedimentation; remark: listed apart in the source
# [3] = biological target: paclitaxel-stabilized microtubules (UniProt P02550)
# [4] = biological target: paclitaxel-stabilized microtubules (UniProt P02550); test: co-sedimentation; remark: listed apart in the source
# Chain of UniProt P02550 (P02550 whole entry, chain 1 of 2): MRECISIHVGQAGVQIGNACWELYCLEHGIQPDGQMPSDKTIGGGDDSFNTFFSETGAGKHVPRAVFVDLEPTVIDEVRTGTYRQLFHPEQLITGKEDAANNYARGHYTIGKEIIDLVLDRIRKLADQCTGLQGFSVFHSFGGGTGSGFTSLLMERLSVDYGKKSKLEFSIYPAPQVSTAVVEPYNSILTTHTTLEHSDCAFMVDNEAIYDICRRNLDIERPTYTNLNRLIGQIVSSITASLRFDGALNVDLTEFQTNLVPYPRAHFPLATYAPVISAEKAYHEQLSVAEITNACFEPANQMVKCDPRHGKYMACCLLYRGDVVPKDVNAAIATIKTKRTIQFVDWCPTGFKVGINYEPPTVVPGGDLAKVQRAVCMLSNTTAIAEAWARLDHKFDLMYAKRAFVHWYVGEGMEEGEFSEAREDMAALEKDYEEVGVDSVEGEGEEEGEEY
# Chain of UniProt P02550 (P02554 whole entry, chain 2 of 2, further chain): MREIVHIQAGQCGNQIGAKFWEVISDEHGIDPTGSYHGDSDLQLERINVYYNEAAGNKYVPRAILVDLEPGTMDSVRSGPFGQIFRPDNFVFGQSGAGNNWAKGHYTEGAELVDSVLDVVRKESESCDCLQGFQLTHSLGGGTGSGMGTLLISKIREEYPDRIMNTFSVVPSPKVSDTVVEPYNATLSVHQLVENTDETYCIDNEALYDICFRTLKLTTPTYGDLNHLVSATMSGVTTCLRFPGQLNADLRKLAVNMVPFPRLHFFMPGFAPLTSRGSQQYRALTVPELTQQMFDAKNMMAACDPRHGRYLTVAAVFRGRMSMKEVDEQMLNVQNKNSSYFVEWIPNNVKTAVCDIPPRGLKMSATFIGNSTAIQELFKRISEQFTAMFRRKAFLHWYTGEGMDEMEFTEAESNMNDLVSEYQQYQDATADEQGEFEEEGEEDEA
Substance,Kd [1],Kd [2],"Km(MT) of MT-activated steady-state ATPase, untreated dynein, 1 mM ATP, 25 °C [3]",Kd [4]
"HFG380 L3339C I3517C double-Cys mutant, oxidized (stalk coiled coil locked in the −β registry), P34036 1388-4730",> 10 µM,> 10 µM,,
"HFG380 L3339C I3517C double-Cys mutant, untreated, P34036 1388-4730",> 10 µM,,26.6 µM,
"HFG380 L3339C Q3510C double-Cys mutant, oxidized (stalk coiled coil locked in the +β registry), P34036 1388-4730",> 10 µM,> 10 µM,,
"HFG380 L3339C Q3510C double-Cys mutant, untreated, P34036 1388-4730",> 10 µM,,40.5 µM,0.61 µM
"HFG380 Q3340C I3513C double-Cys mutant, untreated, P34036 1388-4730",> 10 µM,,14.5 µM,0.65 µM
